For this assay, the target named is T1, LAIR-1 ITIM phosphopeptide (PEG28-ITIM) (Mus musculus).
T1 chain: {Biotin-PEG28′}-DLQEVT[pY]IQLDHH
Put plainly: SPR. (Surface plasmon resonance follows binding to a sensor surface in real time, without labels.)

Non-standard residues stand in square brackets, D forms with d. Primed or numbered codes have the meaning given here. No end group written: not given here. *: point of attachment. PEG28′ = (PEG)28 spacer, 28 polyethylene glycol repeats; Biotin = O=C1N[C@H]2[C@H](CS[C@H]2CCCCC(=O)*)N1; pY = N[C@@H](Cc1ccc(OP(=O)(O)O)cc1)C(=O)O

A word on the Kd: it is the free concentration of one partner at which half of the binding sites on the other are occupied at equilibrium, for simple one-to-one binding. A lower Kd goes with higher affinity.

B1: SHP-1 (protein)
chain: not shown
B1 yielded a Kd of 9.38 µM. This counts as single-digit micromolar.

The record behind these values is PMC5365251 (2017).
